These results are taken from patent US20050186203A1.

Common to all, as to settings: remark: other sources report otherwise
The target of assay [1] is T1, human IGF-I receptor of human tumor cells (MCF-7, NCI-H838, SaOS-2 and other lines) (human), P08069. Description: displacement of pre-bound biotinylated IGF-I from MCF-7 cells by EM164 (10-100 µg/mL) at 37° C., 30 min; capture ELISA. (In general: An ELISA detects its analyte on a solid surface through an enzyme-linked reagent.)
Assay [2] addresses T2, purified full-length human IGF-I receptor (affinity purified; directly coated or biotinylated and captured on streptavidin) (human), P08069. Put plainly: ELISA titration on biotinylated human IGF-I receptor captured on streptavidin; non-linear regression for one-site binding.
Assay [3] concerns the target T2, purified full-length human IGF-I …. Description: ELISA, hybridoma supernatant on plate-coated purified human IGF-I receptor, anti-mouse IgG Fc-HRP.
The target of assay [4] is T1, human IGF-I receptor of human tumor …. Description: displacement of pre-bound biotinylated IGF-I from MCF-7 cells by EM164 (10-100 µg/mL) at 4° C., 2 h; capture ELISA.
Assay [5] concerns the target T2, purified full-length human IGF-I …. Description: ELISA titration on human IGF-I receptor, similar to that of the whole antibody.

B1: murine anti-IGF-I receptor antibody EM164 (antibody, V domains shown)
VH: QVQLQQSGAELVKPGASVKLSCKASGYTFTSYWMHWVKQRPGQGLEWIGEINPSNGRTNYNEKFKRKATLTVDKSSSTAYMQLSSLTSEDSAVYYFARGRPDYYGSSKWYFDVWGAGTTVTVS
VL: DVLMTQTPLSLPVSLGDQASISCRSSQSIVHSNVNTYLEWYLQKPGQSPKLLIYKVSNRFSGVPDRFSGSGSGTDFTLRISRVEAEDLGIYYCFQGSHVPPTFGGGTKLEIKR
B1: the values for the % displacement of pre-bound biotinylated IGF-I in assay [1] and in assay [4] were 90% and 50%, respectively. The same molecule yielded a Kd in assay [2] of 0.1 nM. Besides, in assay [3], the absorbance units (ELISA, 405 nm) (absorbance units) was determined as 1.2.

B2: Fab fragment of EM164 antibody (Fab, V domains shown)
VH: QVQLQQSGAELVKPGASVKLSCKASGYTFTSYWMHWVKQRPGQGLEWIGEINPSNGRTNYNEKFKRKATLTVDKSSSTAYMQLSSLTSEDSAVYYFARGRPDYYGSSKWYFDVWGAGTTVTVS
VL: DVLMTQTPLSLPVSLGDQASISCRSSQSIVHSNVNTYLEWYLQKPGQSPKLLIYKVSNRFSGVPDRFSGSGSGTDFTLRISRVEAEDLGIYYCFQGSHVPPTFGGGTKLEIKR
modifications: here or on the partner: biotinylated with PEO-maleimide-biotin reagent in the captured format
In assay [5], B2 had a Kd of 0.3 nM. In other words, the sub-nanomolar range.

A word on the Kd: it is a measure of binding affinity in units of concentration. A lower Kd goes with a tighter complex.
